Laboratory results taken from the supplement of paper PMC10567573.

B1: HSP90AB1 (parent)
chain: YHTSQSGDEMTSLSEYVSRMKETQ

Variants of: B1
Experiment: protein stability index of a GFP-peptide fusion (GPS, HEK-293T) (PSI 1-6); higher = more stable
Settings: c terminus: a fixed tail appended
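Also: lentivirally expressed fusions sorted by FACS into six bins by GFP to DsRed ratio, PSI derived from sequencing read proportions per bin multiplied by bin number.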

Variant | protein stability index
YHTSPSGDEMTSLSEYVSRMKETQ [Q5P] | 3.34
YHTSMSGDEMTSLSEYVSRMKETQ [Q5M] | 3.67
YHTSTSGDEMTSLSEYVSRMKETQ [Q5T] | 3.91
YHTSISGDEMTSLSEYVSRMKETQ [Q5I] | 2.64
YHTSGSGDEMTSLSEYVSRMKETQ [Q5G] | 3.84
YHTSQSGDEDTSLSEYVSRMKETQ [M10D] | 4.68
YHTSQSGDEWTSLSEYVSRMKETQ [M10W] | 2.12
YHTSQSGDEFTSLSEYVSRMKETQ [M10F] | 3.06
YHTSQSGDEHTSLSEYVSRMKETQ [M10H] | 3.46
YHTSQSGDEATSLSEYVSRMKETQ [M10A] | 4.01
YHTSQSGDEVTSLSEYVSRMKETQ [M10V] | 3.74
YHTSQSGDELTSLSEYVSRMKETQ [M10L] | 3.32
YHTSQSGDEITSLSEYVSRMKETQ [M10I] | 4.08
YHTSQSGDEETSLSEYVSRMKETQ [M10E] | 4.54
YHTSQSGDECTSLSEYVSRMKETQ [M10C] | 4.05
YHTSQSGDETTSLSEYVSRMKETQ [M10T] | 3.73
YHTSQSGDEQTSLSEYVSRMKETQ [M10Q] | 4.05
YHTSQSGDENTSLSEYVSRMKETQ [M10N] | 4.17
YHTSQSGDEPTSLSEYVSRMKETQ [M10P] | 4.17
YHTSQSGDEYTSLSEYVSRMKETQ [M10Y] | 3.2
YHTSQSGDERTSLSEYVSRMKETQ [M10R] | 3.9
YHTSQSGDEGTSLSEYVSRMKETQ [M10G] | 4.1
YHTSQSGDEKTSLSEYVSRMKETQ [M10K] | 4.04
YHTSQSGDESTSLSEYVSRMKETQ [M10S] | 3.87

Variant | protein stability index
YYTSQSGDEMTSLSEYVSRMKETQ [H2Y] | 3.15
YTTSQSGDEMTSLSEYVSRMKETQ [H2T] | 4.67
YPTSQSGDEMTSLSEYVSRMKETQ [H2P] | 5
YVTSQSGDEMTSLSEYVSRMKETQ [H2V] | 2.83
YATSQSGDEMTSLSEYVSRMKETQ [H2A] | 2.87
YDTSQSGDEMTSLSEYVSRMKETQ [H2D] | 4.45
YQTSQSGDEMTSLSEYVSRMKETQ [H2Q] | 3.94
YFTSQSGDEMTSLSEYVSRMKETQ [H2F] | 4.26
YSTSQSGDEMTSLSEYVSRMKETQ [H2S] | 4.42
YGTSQSGDEMTSLSEYVSRMKETQ [H2G] | 4.62
YWTSQSGDEMTSLSEYVSRMKETQ [H2W] | 3.52
YETSQSGDEMTSLSEYVSRMKETQ [H2E] | 4.56
YNTSQSGDEMTSLSEYVSRMKETQ [H2N] | 3.92
YKTSQSGDEMTSLSEYVSRMKETQ [H2K] | 4.66
YLTSQSGDEMTSLSEYVSRMKETQ [H2L] | 4.15
YITSQSGDEMTSLSEYVSRMKETQ [H2I] | 3.46
YMTSQSGDEMTSLSEYVSRMKETQ [H2M] | 3.61
YCTSQSGDEMTSLSEYVSRMKETQ [H2C] | 3.57
YHTAQSGDEMTSLSEYVSRMKETQ [S4A] | 3.86
YHTMQSGDEMTSLSEYVSRMKETQ [S4M] | 3.61
YHTLQSGDEMTSLSEYVSRMKETQ [S4L] | 2.48
YHTDQSGDEMTSLSEYVSRMKETQ [S4D] | 3.49
YHTWQSGDEMTSLSEYVSRMKETQ [S4W] | 1.96
YHTEQSGDEMTSLSEYVSRMKETQ [S4E] | 4.38

Variant | protein stability index
YHTTQSGDEMTSLSEYVSRMKETQ [S4T] | 3.99
YHTGQSGDEMTSLSEYVSRMKETQ [S4G] | 3.02
YHTIQSGDEMTSLSEYVSRMKETQ [S4I] | 2.51
YHTVQSGDEMTSLSEYVSRMKETQ [S4V] | 3.12
YHTNQSGDEMTSLSEYVSRMKETQ [S4N] | 3.39
YHTCQSGDEMTSLSEYVSRMKETQ [S4C] | 3.56
YHTQQSGDEMTSLSEYVSRMKETQ [S4Q] | 3.34
YHTYQSGDEMTSLSEYVSRMKETQ [S4Y] | 2.21
YHTKQSGDEMTSLSEYVSRMKETQ [S4K] | 2.07
YHTHQSGDEMTSLSEYVSRMKETQ [S4H] | 3.38
YHTSQSGCEMTSLSEYVSRMKETQ [D8C] | 2.58
YHTSQSGQEMTSLSEYVSRMKETQ [D8Q] | 3.69
YHTSQSGVEMTSLSEYVSRMKETQ [D8V] | 3.47
YHTSQSGWEMTSLSEYVSRMKETQ [D8W] | 2.17
YHTSQSGPEMTSLSEYVSRMKETQ [D8P] | 3
YHTSQSGSEMTSLSEYVSRMKETQ [D8S] | 3.77
YHTSQSGKEMTSLSEYVSRMKETQ [D8K] | 3.24
YHTSQSGEEMTSLSEYVSRMKETQ [D8E] | 4.24
YHTSQSGTEMTSLSEYVSRMKETQ [D8T] | 3.24
YHTSQSGAEMTSLSEYVSRMKETQ [D8A] | 3.53
YHTSQSGYEMTSLSEYVSRMKETQ [D8Y] | 2.26
YHTSQSGGEMTSLSEYVSRMKETQ [D8G] | 2.89
YHTSQSGFEMTSLSEYVSRMKETQ [D8F] | 3.44
YHTSQSGHEMTSLSEYVSRMKETQ [D8H] | 2.92

Variant | protein stability index
YHTSQSGLEMTSLSEYVSRMKETQ [D8L] | 3.31
YHTSQSGNEMTSLSEYVSRMKETQ [D8N] | 3.33
YHTSQSGIEMTSLSEYVSRMKETQ [D8I] | 2.32
THTSQSGDEMTSLSEYVSRMKETQ [Y1T] | 5.02
NHTSQSGDEMTSLSEYVSRMKETQ [Y1N] | 4.77
AHTSQSGDEMTSLSEYVSRMKETQ [Y1A] | 4.7
FHTSQSGDEMTSLSEYVSRMKETQ [Y1F] | 3.68
HHTSQSGDEMTSLSEYVSRMKETQ [Y1H] | 4.97
QHTSQSGDEMTSLSEYVSRMKETQ [Y1Q] | 4.61
DHTSQSGDEMTSLSEYVSRMKETQ [Y1D] | 4.48
MHTSQSGDEMTSLSEYVSRMKETQ [Y1M] | 4.06
GHTSQSGDEMTSLSEYVSRMKETQ [Y1G] | 4.26
LHTSQSGDEMTSLSEYVSRMKETQ [Y1L] | 4.84
IHTSQSGDEMTSLSEYVSRMKETQ [Y1I] | 4.49
PHTSQSGDEMTSLSEYVSRMKETQ [Y1P] | 5.09
SHTSQSGDEMTSLSEYVSRMKETQ [Y1S] | 4.67
WHTSQSGDEMTSLSEYVSRMKETQ [Y1W] | 4.2
VHTSQSGDEMTSLSEYVSRMKETQ [Y1V] | 4.81
RHTSQSGDEMTSLSEYVSRMKETQ [Y1R] | 4.14
CHTSQSGDEMTSLSEYVSRMKETQ [Y1C] | 4.49
EHTSQSGDEMTSLSEYVSRMKETQ [Y1E] | 4.97
KHTSQSGDEMTSLSEYVSRMKETQ [Y1K] | 4.29
